Ki data for two molecules are collected here from publication doi:10.1101/2020.10.14.337444.

One data set concerns the target ENO1 wt (Homo sapiens, UniProt P06733 1-434). Briefly: competition EMSA.
Another data set deals with ENO1down (Homo sapiens, UniProt P06733 1-434, K343A). Put plainly: competition EMSA.
ENO1down, sequence (P06733 whole entry K343A): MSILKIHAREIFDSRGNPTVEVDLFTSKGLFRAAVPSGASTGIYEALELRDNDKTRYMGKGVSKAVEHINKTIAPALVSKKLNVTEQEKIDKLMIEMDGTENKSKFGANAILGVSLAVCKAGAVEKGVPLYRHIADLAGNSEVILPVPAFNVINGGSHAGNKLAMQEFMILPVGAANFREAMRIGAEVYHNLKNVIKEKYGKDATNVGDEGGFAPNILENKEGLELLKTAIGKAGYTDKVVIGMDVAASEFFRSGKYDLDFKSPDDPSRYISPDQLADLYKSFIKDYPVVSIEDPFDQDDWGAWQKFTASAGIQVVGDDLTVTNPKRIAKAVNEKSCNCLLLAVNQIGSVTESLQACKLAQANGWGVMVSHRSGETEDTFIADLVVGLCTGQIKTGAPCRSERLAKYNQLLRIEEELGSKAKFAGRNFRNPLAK

ENO1 wt, sequence (P06733 whole entry): as the sequence (P06733 whole entry K343A) above, with A343K counted along it

With CCUCUUUUAUAAAAUAACCCGGUGAAGCAGCCGAG (ssRNA) [PABPC1 target 35-mer], the Ki (in general, a dissociation constant, usually derived from enzyme kinetics or from competition with a known ligand) with ENO1 wt turned out to be 27 ± 19 nM; with ENO1down, 224 ± 12 nM.
For GGCCCCCAGCCCCGGCACUCGCUCUCCUCCUCUCA (ssRNA) [PABPC1 control 35-mer] the same measures were 2587 ± 9 nM and 3261 ± 12 nM.
